These results are taken from article PMC9812398.

For assay [1], the target named is stabilized microtubules polymerized from cow brain tubulin (cow) (UniProt Q6B856). The assay is described as follows: TIRF microscopy of microtubule end decoration.
In assay [2] the target is human full-length GFP-CLASP2α (human) (UniProt O75122). The assay is described as follows: TIRF microscopy of microtubules on DNA origami-clustered protein.

Regarding “human full-length GFP-CLASP2α (from UniProt O75122-3 1-1515) (natural protein)”, the end brightness in assay [1] was 594 a.u.
In assay [2], “stabilized microtubules polymerized from cow brain tubulin (from UniProt Q6B856 1-445) (complex)” registered a time for which half of the microtubules keep end association of 4 h.

B1: GFP-L-TOG2-S (domain or fragment)
chain: KVPAPKTSGNPANSARKPGSAGGPKVGAGASKEGGAGAVDEDDFIKAFTDVPSIQIYSSRELEETLNKIREILSDDKHDWDQRANALKKIRSLLVAGAAQYDCFFQHLRLLDGALKLSAKDLRSQVVREACITVAHLSTVLGNKFDHGAEAIVPTLFNLVPNSAKVMATSGCAAIRFIIRHTHVPRLIPLITSNCTSKSVPVRRRSFEFLDLLLQEWQTHSLERHAAVLVETIKKGIHDADAEARVEARKTYMGLRNHFPGEAETLYNSLEPSYQKSLQTYLKSSGSVASLPQSDRSSSSSQESLNRPFSSKWSTANPSTVAGRVSAGSSKASSLPGSLQRSRSDIDVNAAAGAKAHHAAGQSVRSGRLGAGALNAGSYASLEDTSDKLDGTASEDGRVRAKLSAPLAGMGNAKADSRGRSRTKMVSQSQPGSRSGSPGRVLTTTALSTVSSGVQRVLVNSASAQKRSKIPRSQGCSREASPSRLSVARSSRIPRPSVSQGCSREASRESSRDTSPVRSFQPLGPGYGISQSS
For the molecule B1, in assay [1], the end brightness worked out at 757 a.u.
